The source of these data is patent US20110243948A1 (LEXICON PHARMACEUTICALS, published 2011).

Usually Kd stands for a measure of binding affinity in units of concentration. A lower Kd goes with a tighter complex. Usually koff stands for the first-order rate constant of dissociation. A lower koff goes with a long-lived complex. The term kon denotes the rate constant with which the complex forms. Higher therefore signals faster complex formation.

Where “and” joins values, the source holds several entries; their conditions need not be identical. Equal entries are not always repeated.

In assay [1] the target is T1, SP1 peptide (synthetic peptide with the sequence of the SP1 region of ANGPTL3) (mouse and human (the sequence is the …)).
T1 construct: also called ANGPTL3 SP1; hANGPTL3 SP1 peptide
T1 peptide: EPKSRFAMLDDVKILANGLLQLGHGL
In words: SPR (BIACORE 3000), antibody captured on anti-mouse IgG Fc chip, SP1 peptide injected, 1:1 model. As for the experimental part:
(§1) The BIACORE® 3000 is a real-time biomolecular analysis system for detecting and quantifying protein-protein interactions using surface plasmon resonance technology. The following affinity constants were determined according to the manufacturer's instructions for the BIACORE® 3000 system: equilibrium dissociation constant (KD), association rate constant (kₒₙ), and dissociation rate constant (koff).
The BIACORE CM5 chip surface was coated with an anti-mouse IgG Fc by coupling 90 μg/ml of ImmunoPure Goat Anti-Mouse IgG Fc (Product No.: 31170, Pierce, Rockford, Ill. 61105) to the chip surface using an Amine Coupling Kit (Product No.: BR-1000-50, GE Healthcare, Uppsala Sweden). The antibody was then captured on the anti-mouse IgG Fc BIACORE chip surface by injecting the antibody at a flow rate of 10 μl/min for 30 sec. The association and dissociation phases, which are used to determine kₒₙ and koff constants, were generated by first injecting the SP1 peptide into the BIACORE® 3000 system having an antibody-coated chip surface for 2 minutes at a flow rate of 30 μl/min. […] The injection phase was used to determine the association rate constant, or kₒₙ. Following each injection, the SP1 peptide was dissociated from the antibody by flowing BIACORE HBS-EP buffer (Product No.: BR-1001-88, GE Healthcare, Uppsala Sweden) for 5 minutes over the peptide-antibody complex on the BIACORE CM5 chip surface. This dissociation phase was used to determine the dissociation rate constant, or koff. Prior to the next injection, the BIACORE chip surface was regenerated by injecting 10 mM HCl at a flow rate of 100 μl/min for 30 seconds.

Assay [2] deals with T2, hANGPTL3T (full-length HIS-tagged human ANGPTL3) (human, UniProt Q9Y5C1 17-460).
T2 construct: Human ANGPTL3 with a glycine and His6 at the C-terminus, purified from conditioned medium of infected CHO cells; also called full-length ANGPTL3T; human ANGPTL3T
T2 sequence: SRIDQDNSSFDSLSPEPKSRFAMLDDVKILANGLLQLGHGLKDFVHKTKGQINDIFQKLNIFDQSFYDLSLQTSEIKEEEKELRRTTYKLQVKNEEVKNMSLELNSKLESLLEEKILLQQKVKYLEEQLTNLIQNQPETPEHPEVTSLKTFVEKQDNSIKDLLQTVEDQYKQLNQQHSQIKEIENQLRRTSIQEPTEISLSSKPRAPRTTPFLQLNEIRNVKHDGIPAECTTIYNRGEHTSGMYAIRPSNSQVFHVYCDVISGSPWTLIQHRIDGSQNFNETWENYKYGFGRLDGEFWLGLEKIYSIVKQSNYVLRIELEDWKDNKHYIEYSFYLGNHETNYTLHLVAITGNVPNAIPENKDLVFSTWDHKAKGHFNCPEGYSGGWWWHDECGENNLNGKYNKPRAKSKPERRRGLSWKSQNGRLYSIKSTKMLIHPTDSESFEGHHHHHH
The experiment in a line: ELISA (data not shown).

For a further assay, the target named is T3, mouse ANGPTL3 (mouse, UniProt Q9R182 17-455, limits assumed).
T3 sequence: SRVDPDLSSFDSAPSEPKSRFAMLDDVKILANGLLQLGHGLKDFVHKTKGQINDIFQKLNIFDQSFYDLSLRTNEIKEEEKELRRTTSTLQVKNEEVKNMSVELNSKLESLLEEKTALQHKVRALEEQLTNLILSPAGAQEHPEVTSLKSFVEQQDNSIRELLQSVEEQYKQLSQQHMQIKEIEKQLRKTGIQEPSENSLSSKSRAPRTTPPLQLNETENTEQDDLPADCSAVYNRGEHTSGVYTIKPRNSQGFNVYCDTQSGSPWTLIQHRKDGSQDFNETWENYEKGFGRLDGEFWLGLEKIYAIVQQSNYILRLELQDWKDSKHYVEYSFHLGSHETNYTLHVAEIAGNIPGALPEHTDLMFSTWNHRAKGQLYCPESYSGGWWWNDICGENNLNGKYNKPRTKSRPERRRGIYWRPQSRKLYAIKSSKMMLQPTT
The experiment in a line: cell-based or functional assay.

In another assay the target is T4, N'-hANGPTL3T (human, UniProt Q9Y5C1 20-243).
T4 construct: also called rN'-hANGPTL3T
T4 sequence: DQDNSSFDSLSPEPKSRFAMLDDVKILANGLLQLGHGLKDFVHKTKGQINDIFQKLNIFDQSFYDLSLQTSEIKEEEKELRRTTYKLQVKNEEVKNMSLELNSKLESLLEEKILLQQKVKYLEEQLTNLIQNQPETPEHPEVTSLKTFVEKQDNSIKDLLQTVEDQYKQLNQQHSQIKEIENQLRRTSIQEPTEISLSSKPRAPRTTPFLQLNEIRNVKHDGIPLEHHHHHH
The experiment in a line: SPR (BIACORE 3000), antigen amine-coupled to CM5 chip, Fab injected, 1:1 model. As for the experimental part:
as §1
(§2) Affinity constants of the 4.7.1, 4.8.3, and 4.9.1 antibodies for N′-hANGPTL3T and hANGPTL3T protein antigens were each determined as follows. The BIACORE CM5 chip surface was coated with a protein antigen by coupling either 10 μg/ml of N′-hANGPTL3T or 20 μg/ml of hANGPTL3T to the chip surface using an Amine Coupling Kit (Product No.: BR-1000-50, GE Healthcare, Uppsala Sweden). The association and dissociation phases, which are used to determine the kₒₙ and koff constants, were generated by first injecting a Fab fragment of the antibody (generated using a Fab Preparation Kit (Product No.: 44885, Pierce, Rockford, Ill. 61105) according to the manufacturer's instructions) into the BIACORE® 3000 system having a coated chip surface for 2 minutes at a flow rate of 30 μl/min. […] The injection phase was used to determine the association rate constant, or kₒₙ. Following each injection, the Fab fragment was dissociated from the protein antigen by flowing BIACORE HBS-EP buffer (Product No.: BR-1001-88, GE Healthcare, Uppsala Sweden) for 5 minutes over the antigen-Fab complex on the BIACORE CM5 chip surface. This dissociation phase was used to determine the dissociation rate constant, or koff. Prior to the next injection, the BIACORE chip surface was regenerated by injecting 10 mM HCl at a flow rate of 100 μl/min for 30 seconds.
(Surface plasmon resonance follows binding to a sensor surface in real time, without labels.)

The target of assay [3] is T2, hANGPTL3T (full-length HIS-tagged human …). The description is as above. How it is done:
as §1, §2

Assay [4] has as its target T1, SP1 peptide (synthetic peptide with the …). The experiment in a line: antibody capture ELISA (FIG. 9). On the technique in general: An ELISA detects its analyte on a solid surface through an enzyme-linked reagent.

B1: antibody 5.35 (antibody, IgG2a, V domains shown)
VH: QVTLKESGPGILHPSQTLTLTCSFSGFSLNTFGLAVGWIRQPSGKGLEWLGHIWWDDHKYYNGVLKSRLTISKDSSKKQVFLRIANVDTADTARYYCARLETGTGFAYWGQGTLVTVSA
VL: DIVLTQSTPSVPVTPGESVSISCRSSKSLLDSNGITYLYWFLQRPGQSPQLLIYRMSKLASGVPDRFSGSGSETAFTLRISRVEAEDVGVYYCMQPLEYPFTFGAGTKLELNG
notes: Biotinylated in the alanine-scanning ELISA
With B1, in assay [1], binding was characterised by a dissociation constant (Kd) of 1.8 nM, the dissociation rate constant (koff) came out at 0.0015 s⁻¹ and the kon amounted to 835000 M⁻¹ s⁻¹. Also, in assay [2], the binding result was “binds”.

B2: antibody 4.7.1 (antibody, IgG2b, V domains shown)
VH: EVQLQQSGPELVKPGASVKMSCKASGYTFTSYVMHWVKQKPGQGLEWIGYFNPYNDGTKYNEKFKGKATLTSDKSSSTAYMELSSLTSEDSAVYYCAREGDYYGYFDYWGQGTTLTVSS
VL: DIQMTQTTSSLSASLGDRVTISCRASQDISNFLNWYQQKPDGTVKLLIYYTSRLHSGVPSRFSGSGSGTDYSLTISNLEQEDIATYFCQQGNTLPPTFGGGTKLEIKR
notes: as for B1
With B2, in assay [1], the Kd came to 26.1 nM, the koff turned out to be 0.00546 s⁻¹ and the kon came out at 209000 M⁻¹ s⁻¹. Also, the “rescue of LPL activity (percentage increase in LPL activity in the presence of both ANGPTL3 and anti-ANGPTL3 antibody relative to ANGPTL3 alone)” value in the assay with mouse ANGPTL3 was above 50%.

B3: Fab fragment of antibody 4.7.1 (Fab, V domains shown)
VH: EVQLQQSGPELVKPGASVKMSCKASGYTFTSYVMHWVKQKPGQGLEWIGYFNPYNDGTKYNEKFKGKATLTSDKSSSTAYMELSSLTSEDSAVYYCAREGDYYGYFDYWGQGTTLTVSS
VL: DIQMTQTTSSLSASLGDRVTISCRASQDISNFLNWYQQKPDGTVKLLIYYTSRLHSGVPSRFSGSGSGTDYSLTISNLEQEDIATYFCQQGNTLPPTFGGGTKLEIKR
In the case of B3, in the assay with N'-hANGPTL3T, the Kd is 49.5 nM and 77.5 nM; the koff was 0.00915 s⁻¹ and 0.00899 s⁻¹; the kon is 185000 M⁻¹ s⁻¹ and 116000 M⁻¹ s⁻¹. Further, in assay [3], the Kd is 45.3 nM and 117 nM; the koff was 0.00796 s⁻¹ and 0.00953 s⁻¹; the kon was 176000 M⁻¹ s⁻¹ and 81200 M⁻¹ s⁻¹.

B4: antibody 4.8.3 (antibody, IgG2a, V domains shown)
VH: EVQLQQSGPELVKPGASVKMSCKASGYTFISCVMHWVKQKPGQGLEWIGYINPYNDGTKYNEKFKGKATLTSDKSSSTAYMELSSLTSEDSAVYYCAREGDYYGYFDYWGQGTTLTVSS
VL: EIQMTQTTSSLSASLGDRVTISCWASQDINNYLNWYQQKPDGTVKLLIYYTSRLHSGVPSRFSGSGSGTDYSLTISNLKQEDIATYFCQQGNTLPPTFGGGTKLEIKR
notes: as for B1
In the case of B4, in assay [4], the binding result is listed as “binds”. Besides, the “rescue of LPL activity (percentage increase in LPL activity in the presence of both ANGPTL3 and anti-ANGPTL3 antibody relative to ANGPTL3 alone)” value with mouse ANGPTL3 was above 50%.

B5: Fab fragment of antibody 4.9.1 (Fab, V domains shown)
VH: EVQLQQSGPELVKPGASVKMSCKASGYTFTSYVMHWVKQKPGQGLEWIGYINPYNDGTKYNENFKGKATLTSDKSSSTAYMEFSSLTSEDSAVYYCAREGDYYGYFDYWGQGTTLTVSS
VL: DIQMTQTTSSLSASLGDRVTISCRASQDIRNYLNWYQQKPDGTVKLLIYYTSRLHSGVPSRFSGSGSGTDYSLTISNLEQEDIATYFCQQGNTLPPTFGGGTKLEIKR
As to B5, in the assay with N'-hANGPTL3T, the Kd was 45.4 nM and 55 nM; the koff is 0.00593 s⁻¹ and 0.00734 s⁻¹; the kon is 131000 M⁻¹ s⁻¹ and 133000 M⁻¹ s⁻¹. In assay [3], the Kd was 48.1 nM and 45.2 nM; the koff was 0.00622 s⁻¹ and 0.00777 s⁻¹; the kon was 129000 M⁻¹ s⁻¹ and 172000 M⁻¹ s⁻¹.

B6: Fab fragment of antibody 4.8.3 (Fab, V domains shown)
VH: EVQLQQSGPELVKPGASVKMSCKASGYTFISCVMHWVKQKPGQGLEWIGYINPYNDGTKYNEKFKGKATLTSDKSSSTAYMELSSLTSEDSAVYYCAREGDYYGYFDYWGQGTTLTVSS
VL: EIQMTQTTSSLSASLGDRVTISCWASQDINNYLNWYQQKPDGTVKLLIYYTSRLHSGVPSRFSGSGSGTDYSLTISNLKQEDIATYFCQQGNTLPPTFGGGTKLEIKR
Take B6: in the assay with N'-hANGPTL3T, the Kd is 210 nM and 251 nM; the koff is 0.019 s⁻¹ and 0.0275 s⁻¹; the kon is 90000 M⁻¹ s⁻¹ and 109000 M⁻¹ s⁻¹. For the same molecule, in assay [3], the Kd was 970 nM and 450 nM; the koff was 0.0216 s⁻¹ and 0.0273 s⁻¹; the kon is 22300 M⁻¹ s⁻¹ and 60000 M⁻¹ s⁻¹.

B7: antibody 4.9.1 (antibody, IgG1, V domains shown)
VH: EVQLQQSGPELVKPGASVKMSCKASGYTFTSYVMHWVKQKPGQGLEWIGYINPYNDGTKYNENFKGKATLTSDKSSSTAYMEFSSLTSEDSAVYYCAREGDYYGYFDYWGQGTTLTVSS
VL: DIQMTQTTSSLSASLGDRVTISCRASQDIRNYLNWYQQKPDGTVKLLIYYTSRLHSGVPSRFSGSGSGTDYSLTISNLEQEDIATYFCQQGNTLPPTFGGGTKLEIKR
notes: as for B1
With B7, in assay [1], the affinity, expressed as Kd, was 46.1 nM; the koff worked out at 0.00778 s⁻¹; the kon came out at 169000 M⁻¹ s⁻¹. Moreover, the “rescue of LPL activity (percentage increase in LPL activity in the presence of both ANGPTL3 and anti-ANGPTL3 antibody relative to ANGPTL3 alone)” value with mouse ANGPTL3 was above 50%.

B8: antibody 5.50 (antibody, IgG2b, V domains shown)
VH: EVQLQQSGPELVKPGASVKISCKASGFTFTDYYMNWVKQSHGESLEWIGDINPNNGGTIYNQKFRGKATLTVDKSSSTAYMELRSLTSEDSAVYYCVRLPWYFDVWGTGTTVTVSS
VL: DVLMTQTPLSLPVSLGDQASISCRSSQSILHSNGNTYLEWFLQKPGQSPKLLIYKVSNRFSGVPDRFSGSGSGTDFTLKISRVEAEDLGVYYCFQGSHVPYTFGGGTKLEIKR
notes: as for B1
On to B8, for which, in assay [1], binding was characterised by a dissociation constant (Kd) of 1.78 nM, the koff came out at 0.00193 s⁻¹ and the kon amounted to 1.08e+06 M⁻¹ s⁻¹. For the same molecule, the binding result in assay [2] is given as “binds”.
